Drawing on a protein production outcome set (Wang et al. 2014), this text covers protein production for 19 sequences.

The series can be described thus: label from the status in PepcDB records.
For the sequence “MQWRFCLTTVLGVVLSFSPSVKVQAQGLESLTYYTENYPPLNFAKEDGKPAGIAVDLLLEAAAAVNVTLNLDQIFVQPWPRSYRSALLKQDGVLFSTTRTTHRENLFNWVGPIADIKVVVLARKSSQIKVNDPIELGNYRIGVIRDDIGEQQLLQLGVPRESMVEGSTVSSLAEQLLKKRIDLLAYDERTALWWMSQDSYPVEEFETVYVLMQGSLYYAFNKNIDKSVLNDLQKGIELIKNSVNENGVTRYQAILDKY”, the protein production result is recorded as “failed”.

“MTSRSATATARTSSEARAVARTQTLIKGEHGIGTVRRTTLPGGLRIVTETLPSVRSATFGIWAHVGSRDETPALNGATHYLEHLLFKGTRKRSALDISSAIDAVGGEMNAFTAKEYTCYYARVLDTDLPLAIDVVCDMLTGSLIQEEDVDVERGAILEEIAMTEDDPGDCVHDLFAHTMFGDNALGRPVLGTVDTVNALTADRIRRFYRKHYDPTHLVVAAAGNVDHNKVVRQVRAAFEKSGALKDPAAQPLAPRAGRRTVRAAGRVELIGRKTEQAHVILGMPGLARTDERRWAMGVLNTALGGGMSSRLFQEVREKRGLAYSVYSYTSGFADCGLFGVYAGCRPSQVHDVLKICRDELDHVAEHGLTDDEIGRAVGQLQGSTVLGLEDTGALMNRIGKSELCWGEQMSVDDMLARIASVTPDDVRAVARDVLGRRPSLSVIGPLKDKQASRLHDAVA”: the protein production result is reported as “failed”.

Consider “MEMKKMKKMDKMELLKQIMAVDFTIIDLSLYLNTHPMDKEAIAKHNAFVAQSHMLKGQYQKYYGMLTATNSCSPYPWQWIKEPWPWEYDANFRL”, for which the protein production entry is “failed”. The entry for “MTAPKVFVSHASEDKARFVVDFARRLRENGVDAWLDQWEMKPGDSLVDKIFEEGLREARAVVIVLSATSVRKPWVREELNASVVNRISRGTKLIPVVIDDCDVPEALRSTVLEHHHHHH” is “failed”; for “MYLKARQDELTESTIQSQEYRLEAFEQFCREEGIENLNDLSGRDLYAYRVWRREGNGKGRDEIEPITLRGQLATVRSFLRFAAEVDAVPEDLRTKVPLPTISNAGEVSASTLDPERADVILDYLQMYKYASRVHVIALLLWHTGARMGAIRGLDIDDCELEQDNPGIQFVHRPQTDTPLKNGEKGQRWNAISDHVANVLQDYIDGPREPVFDEHGRRPLVTTPQGRASTSTFRTTMYRVTRPCWRGAECPHDRDPEECEATSNRKASTCPSARSPHDVRSGRVTAYRREDVPRRVVSDRLNASDQILDKHYDRRGEREKSEQRRDYLPEV” it is “failed”; for “MFLRTQARFFHATTKKMDFSKMSIVGRIGSEFTEHTSANNNRYLKYSIASQPRRDGQTNWYNITVFNEPQINFLTEYVRKGALVYVEADAANYVFERDDGSKGTTLSLVQKDINLLKNGKKLEDAEGQENAASSE” it is “failed”. With “SQPDHGRLSPPEAPDRPTISTASETSVYVTWIPRGNGGFPIQSFRVEYKKLKKVGDWILATSAIPPSRLSVEITGLEKGISYKFRVRALNMLGESEPSAPSRPYVVSG”, the protein production entry is recorded as “not failed”. With “MGSPNINGNTAKLVNAILDGAAEKRAEKVIYNLASLNIKGCDACFRCQKSGCCAIDDDMQELYHEIQAADTIVLGSPVYMWQMTAQTKLLIDRLTAFLKPDFSSRLDNKKLILVFSQGSPDRDAFKPYFEYTAGLLYYLGFDVLETVIAAGTDNLEVSFRPKLLENARELGRLVSTSPLTGPEFKKDEPSLTPLL”, the protein production entry is “failed”.

On to “MFNRRIALICLIVATLSACGGKTKEELYAEAVKELDKGNANGAIVLLKNAVEKDQNYFDARYKLAKAYMTVGKFEQAEKEFQKALRQNPSNPEIRLDLAKLYNSINKPDESIAEAKAYLSARAGSADALEVIGTSYGQKKMFDEAEKYLKESLQAEPARASAMLQLAKVYLATKREQEGMGLLNEIVRKDPKNTKAYYLAAFYEGYRGNSEKALEYYQKIMQADPDDANAAFRIGMMHISKGEVDKAERLADDLIRKASKRPEGHQLKGIALYTRKNYDQAITELQGVVKNYQNPGAYYYLGLSYYQRNDLESALSQFRKVIDLNPKHLQARLMSATVLLQQKRTDDAITEAKRVIELDDKNAFAHNVLGSAYIAKGMTDEAVRELNRAIELEPKLVGAHMKKGIVNLARGKRAEGEEELETAVKVAPDVLNSRYLLASYYMRLNKQARAIEVLRAGLRGGKQDAPLYNTMAAAAFADKREKDGILYLQKAREVDQAYLPASFNLASYYISKKDNGRAAGLFNEILKRDPANLKALIGLGAISESEGKAQEAVAYYTKAKATKDPVGYLSLASYYIRKKEAPKALALANEGLKGAPNNAALLELKGGLLAADKKYAEALKVYDELEKVAPTRAIPLKIGALVVTKNIPKAVEQAQKVVAANPKSAAGHLVIASIYESQKDYDRAISAVRSGIAVEPGNLRASMALGGIYEKKRDFARAIAAYDDILRKNPKNIPALFAKGAAFDQSGKKKEAAGIYRAVLKIAPDFVPALNNLAYLAAEGYGNKSEALSLASRANKLQPNNAGVMDTYGYALLINGKRTASVRVLEKAVSLLPNNPAVHYHLAMAYRDMGDRAKASVSVQKSLQYGEFPESAAARKLLAELKR”, for which the protein production result is “failed”. As to “MVGNVRHYLFYANSSELQQQMMNRKSHFNLSQTTQEWLIGKGYNPEDLEQPGENGDSALMKATREGVDAVVKELIDLGVDINARNNDNNNALWFACFGNHYDLIHLLLAAKINIDNQNDNGATVLMYAASAGKTEVVKLLLQYHPNLYLRNLDDFQAIDFASNVEVLRLLKNATK”, the protein production result was “failed”. With “MSSSSSVPAYLGDEDLTQETRALISSLPKEKGWLVSEIYEFQGLWHTQAILQGILICQKRFEAKDSDIILVTNPKSGTTWLKALVFALLNRHKFPVSSSGNHPLLVTNPHLLVPFLEGVYYESPDFDFSSLPSPRLMNTHISHLSLPESVKSSSCKIVYCCRNPKDMFVSLWHFGKKLAPEETADYPIEKAVEAFCEGKFIGGPFWDHILEYWYASRENPNKVLFVTYEELKKQTEVEMKRIAEFLECGFIEEEEVREIVKLCSFESLSNLEVNKEGKLPNGIETKTFFRKGEIGGWRDTLSESLAEEIDRTIEEKFKGSGLKFSS”, the protein production entry is on record as “not failed”. Then “MPGDTENTSTDTTNEHIDLALYRQLVKQFIDMRRYSTALFWAEKVAVLGGLEPRDIYYQAQCMYLLGEYHRAAHTIQHHKLEKNSLPCFNLLLESLYAAKEFTEAANVIQNVEVEVMTTSLINQPVDASSGCYLESNSVFGGEENHRNELLSSIYLMKGKVYEALDNRGMAMDFYVQALHKSIYCFEALEALVQHEMLMAWEEFELMHHLPLAQQSSEADAKFILKLYESRLKKYYELISARNAEEMSPIVNPDILQFIKEFTARVQQSGSSDTQMPKVSAVKVPLTPSQFMSPAQKVLEDLKAPTFSLQTSLSKASSLIDASHRSMFDSSSRRRSRDHDTDTLIPIAECLDRVQRSTDLMAAEAEKCFYDCDYKQCLKILNELLKVDPFHNTALTIQIACLVENGDFNRLFYVAHKLVDRYPDKAISWYAVGCYYDMIGKSDPARRYLSKATALDRLYGPAWLAYGHSFANENEHEQAMAAYFKATQLMRGCHLPLLYIGVECGLTKNLELAEKFFLQAMNIAPLDVYVLHELGVIKYEYEFFDGAATIFQCTVDIVKQRAKSNNEEISSRWEPLFINLGHSLRKVHKYEEALYNFQYALLLKPQSPTTYTSIGFIHALLGNLDPAIEAFHKSLALNRDCIVTSTILKSCIEDLMDDSATIDEICSAALRDVAKNITANSRRVLNSDKFNGMKLKFDEEEEFANSDSNMVVEMSFDT”, with “failed”. Then “QYDPYKNPESAQTRRNTVLQQMYQDKNISKKEYDQAVATPVTDGLKELKQKSTYPKYMDNYLKQVISEVKQKTGKDIFTAGL”, with “failed”. As for “SLKRKLKPKRLQLPPQDVVFEGEAAMNEYTFYRNWVESWLQHIRSYYLLFIDGDPSLSKFFEIEICAHSWKRSTFDQQVFKFGLLWECVDIARSRTVYWQCALGTGHIQEDKVSEATSPFTDDSCTNSCLSRMTGQ”, the protein production entry is listed as “failed”. Then “MSNGGLSIDEKEGLIDKDEVMIRRMKNRERQRRYRARKRMREEEAGNDDNLSFETMGKQEEEEEEDEGLEFNGPSGYVENFVRRVYCDRNWKKEARRAHLIMNKAQDSSCESVKRKIRPHRRDWKAEARKKKT”, with “failed”. The entry for “MPSHTDENWELAIQTPAITDRSLAAGLAYAMGSRVNGISFDAATGLLMGKVRGTGPQPYSTSAKLVRKPSGWSCTVGICNCPVRKDCKHVAALLFTAEDHPTIRAQLLSQAPGIQTSRVGSGQQGGSARPAWEQALNRLITKPGTAPSAAGIPLALQFEVEEPAAHFSYTGRRDPMRSVRQLKARPVMMGAKGKWIRGDVSWNNLSYVSFRREFNEVHVEWLQTFLAAHGSSNGRQQPSGAMWLSLNDFAAKNLWTLLAEATKAGIPLIHSAGSEPVRVETQPAVVGLSLARLATDPDTAKHEAPDGGLQLAPSVTLGGEAVDPGSVGFLGKPANGIFFTHSGDSLPGVPQQKNLITLAPMEGGISDELLEFVMDGDTLQIPAEDESRFLTSFYPKLRQSTPVQAADESVELPTLAVPTLSLLANYGNDHKVRLHWEWHYKSGTLVTSQPLWRHPDDRGYRDDLEEARILESLGRPWDVVPALAESATGGWGAPRIAASAELSGLDTLAFTEEVLPALKDLPDVVVETSGDIADYREAAEAPVVSISTKETASGDWFDLGIVITLEGEPVSFAAVFSALAAGMSRMLLPSGAYFSLDLPELHQLRALIDEARSLQDNPDNKDGTLQISRFQAGLWDELAQLGIVDEQAAAWREAVGGLLDDGVTGLPLPAGLNAELRPYQLEGFNWLSFLYKHSLGGVLADDMGLGKTVQAIALICAAKDLAAETAAAAQGDASEVVPRAPFLVVAPTSVVSNWAAEAQRFAPGLVVRTVGETFAKSGMAPAEALAGADVVITSYALFRIDYDAYASFQWAGLMLDEAQFVKNHQSKAYQCARKLPARFKLAITGTPLENNLMEFWALTSIVAPGLFPSPKRFAENYQKPVEKNGDSAQLGKLRRRVRPLMMRRTKEQVIKDLPPKQEQILEVVLNPRHQKVYQTHLQRERQKILGLIDDVNKNRFTIFQSLTLLRQLSLDASLVDSSLSGVRSSKLDVLFEQLEDLISEGHRALIFSQFTGFLGKVRERLDAEGVEYCYLDGSTRNRGDVVSEFKNGAAPVFLISLKAGGFGLNLTEADYVFLLDPWWNPASEAQAVDRTHRIGQARNVMVYRLVAKDTIEEKVMALKAKKSQLFADVMEGDALAGGSLTADDLAALFAE” is “failed”; for “MWSFIQKIFKALIIAPLDFITKYFKSFVLLLIVLVFFSAKESAPSAPPNLAKLYLNGAIFSTEDFDKEVDKILKTPSIKGVLLLIDSPGGAVSASVELSEKIADLKQKMPVLAYARGVMASGSYYAGMQASEVYASKASLIGSIGVIFSGANVENLLNKVGVATQGVHAGEYKEIGTFTRAWKPNEKDFLQNLVNEQYQMFVNDVAKARKLDAKDYKDFAEGKVFSAQKALKLKLIDKISTIKQAQDRLMELSKVKKAYWLEKSPMERFIEKATQSATNIITQAFGYQLLMR” it is “failed”; for “MPAVARIDPKTIFTPDEWARLTHRSSARGLWLVAHAWGCIALAVALVTIWPNPLTWLIAVMIVGTRQLGLAILMHEAAHGGLHCNPKLNEWIGQWLCAVPVGADLPAYRRYHLQHHKYTQQPEDPDLVLSAPFPISKDSFVRKAIRDLTGQTFVKQRLPALKALFAPADSGAPKHDSFVASGKARTQRFLAANAVLLALFWLAGAGVWFVGVWLVAMATWLPLVTRVRNIAEHACTSTGADPFSQARTTLANPIERALIAPYWVNYHAEHHLFMYLPCYNLPEAHRLLRDKGLIDRVTVAPSYRDVLKLATTRPRAVAAE” it is “failed”.

As for “MRRQAEAYKAQLAAMVESSDDAIIVKDLNAIITSWNAGAERIFGYQASEITGSSILALIPPERHEEEKGIMSLVKSGNRVDHFETMWWGKGKKPIDVSVTTSAVKDSDGNIVGISQIARDLEHHHHHH”, the protein production result was “failed”.
